{"source": "patent US20170029907", "about": "“GENERALIZABLE ASSAY FOR VIRUS CAPSID ASSEMBLY” (Indiana University Research and Technology Corporation, published 2017)", "key": {"[1]": {"target": "T1, RRV capsid protein (Ross River virus, UniProt P08491 P08491:1-270)", "T1 sequence (P08491 1-270, one chain of several)": "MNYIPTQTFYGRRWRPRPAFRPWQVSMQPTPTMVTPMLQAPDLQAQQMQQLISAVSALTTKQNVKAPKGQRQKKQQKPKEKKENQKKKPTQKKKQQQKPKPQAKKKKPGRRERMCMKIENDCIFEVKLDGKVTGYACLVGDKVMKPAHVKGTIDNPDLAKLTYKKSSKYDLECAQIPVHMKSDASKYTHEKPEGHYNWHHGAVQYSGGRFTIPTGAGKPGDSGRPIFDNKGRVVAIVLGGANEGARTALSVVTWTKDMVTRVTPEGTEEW", "assay": "light scattering, DLS and EM; 50-170 mM NaCl; ionic strength dependent pseudo-critical concentration", "settings": "chain copies: assembles into core-like particles; about 4 per oligonucleotide"}, "[2]": {"target": "T2, HBV capsid protein Cp183 (Hepatitis B virus, UniProt P03146 P03146:1-183)", "T2 sequence (P03146 whole entry, one chain of several)": "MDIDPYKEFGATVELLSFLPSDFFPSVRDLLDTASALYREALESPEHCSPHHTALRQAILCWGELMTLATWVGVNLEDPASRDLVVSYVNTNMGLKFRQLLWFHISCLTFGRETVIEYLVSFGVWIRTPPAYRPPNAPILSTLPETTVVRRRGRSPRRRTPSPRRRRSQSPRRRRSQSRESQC", "assay": "intermolecular FRET and light scattering; 1 uM DNA; maximum near 3:1 then signal falls by dilution", "settings": "chain copies: dimer (stated); assembles into capsids; label: Cy3 (D27) or Cy5 (A27)", "protocol": "(§1) Assembly was monitored by fluorescence. All reactions were carried out at 21° C. For the Cy3 donor and Cy5 acceptor fluorophores, fluorescence emission spectra for FRET experiments was measured from 555-710 nm. For measuring FRET in titrations, donor and acceptor excitation wavelengths were 545 and 645 nm respectively. Acceptor emission was measured at 670 nm.\nUsing the optimized A:D ratio, we evaluated the sensitivity of this FRET assay for assembly. This was necessary to determine if reaction volumes and concentrations could be lowered to physiologically relevant levels. […] The minimum detectable concentration of DNA in these assays is 50 nM. Initial results shown in FIG. 1 are protein titrations of 1 μM DNA showing the assay works under more aggressive conditions. Assembly led to an increase in FRET, that was maximal at a specific protein concentration and then fell as more protein was added."}, "[3]": {"target": "T3, BMV capsid protein (Brome mosaic virus, UniProt P03602 P03602:1-189)", "T3 sequence": "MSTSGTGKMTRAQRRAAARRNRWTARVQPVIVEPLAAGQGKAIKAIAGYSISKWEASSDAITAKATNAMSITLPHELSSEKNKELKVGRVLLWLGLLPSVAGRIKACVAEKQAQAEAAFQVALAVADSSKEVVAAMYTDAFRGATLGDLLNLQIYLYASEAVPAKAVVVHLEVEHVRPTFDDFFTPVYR", "assay": "intermolecular FRET; 1 uM DNA; saturates at about 10 proteins per oligo", "settings": "chain copies: assembles into capsids; label: Cy3 (D27) or Cy5 (A27)"}, "[4]": {"target": "T1, RRV capsid protein", "assay": "intermolecular FRET; 1 uM DNA; saturates at 4 proteins per oligo", "settings": "chain copies: assembles into core-like particles; about 4 per oligonucleotide; label: Cy3 (D27) or Cy5 (A27)"}, "[5]": {"target": "T2, HBV capsid protein Cp183", "assay": "FRET increase; 0.1 uM DNA", "settings": "chain copies: dimer (stated); assembles into capsids; label: Cy3 and Cy5 at the two ends", "protocol": "as §1\nFor comparison, DA was titrated with Cp183 and the results were compared to those obtained with GagΔ. FIGS. 4A and 4B show the spectra for HIV-1 GagΔ and HBV Cp183 respectively. Spectra obtained by titrating DA with GagΔ and Cp183 both show increases in FRET signal."}}}
{"binder": "TACCCACGCTCTCGCAGTCATAATTCG (ssDNA)", "note": "[unlabeled 27-mer]", "values": [{"measurement": "binding result", "setting": "[1]", "value": "binds"}]}
{"binder": "TACCCACGCTCTCGCAGTCATAATTCG (ssDNA)", "note": "[27-mer D27/A27 1:1 mix]", "values": [{"measurement": "binding result", "setting": "[2]", "value": "binds"}, {"measurement": "binding result", "setting": "[3]", "value": "binds"}, {"measurement": "binding result", "setting": "[4]", "value": "binds"}]}
{"binder": "TGTGTGTGTGAAAAAAAAAAAAAAAAAAAATGTGTGTGTG (ssDNA)", "note": "[DA 40-mer]", "values": [{"measurement": "binding result", "setting": "[5]", "value": "binds"}]}
